Reference: FireProtDB (doi:10.1016/s0301-4622(99)00119-2)
“And” between values parts separate entries of the source, which are not always exact repeats. Identical values can stand only once.

Details: Bos taurus, pH 7, Absorbance, Sodium phosphate 100 mM

Chain of Cytochrome b wild type, P00157 (P00157 whole entry): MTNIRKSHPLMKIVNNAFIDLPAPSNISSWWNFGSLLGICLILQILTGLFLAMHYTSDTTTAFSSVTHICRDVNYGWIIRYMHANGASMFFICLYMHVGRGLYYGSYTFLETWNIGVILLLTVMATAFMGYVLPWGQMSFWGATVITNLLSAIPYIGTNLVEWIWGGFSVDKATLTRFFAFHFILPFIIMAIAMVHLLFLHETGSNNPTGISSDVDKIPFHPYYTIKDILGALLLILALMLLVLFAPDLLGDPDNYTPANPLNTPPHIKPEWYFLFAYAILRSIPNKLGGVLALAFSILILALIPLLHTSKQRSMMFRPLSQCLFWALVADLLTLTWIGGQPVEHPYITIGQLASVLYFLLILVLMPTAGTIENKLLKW

Cytochrome b wild type, P00157
denaturant midpoint (higher = more stable) (25 °C, Urea): 6.8 M | unfolding enthalpy (van 't Hoff) (Thermal): 90.1 kcal/mol and 85.6 kcal/mol
